# In patent US6670160B2, “α1,2-fucosyltransferase” (priority 1998, dated 2003):
# Values joined by “and” are separate entries in the source; they are usually repeats but may differ in a detail not shown here. Equal entries are not always repeated.
# B1: α1,2FucT (UA802): H. pylori UA802 α1,2-fucosyltransferase (SEQ ID NO:2), overexpressed in E. coli from plasmid pGEMI6 (protein)
# chain: MAFKVVQICGGLGNQMFQYAFAKSLQKHLNTPVLLDTTSFDWSNRKMQLELFPIDLPYANAKEIAIAKMQHLPKLVRDALKYIGFDRVSQEIVFEYEPKLLKPSRLTYFFGYFQDPRYFDAISSLIKQTFTLPPPPENNKNNNKKEEEYQRKLSLILAAKNSVFVHIRRGDYVGIGCQLGIDYQKKALEYMAKRVPNMELFVFCEDLKFTQNLDLGYPFTDMTTRDKEEEAYWDMLLMQSCKHGIIANSTYSWWAAYLMENPEKIIIGPKHWLFGHENILCKEWVKIESHFEVKSQKYNA
# Experiments:
# Assay type in all cases: biochemical
# [1] = Reaction products by capillary electrophoresis, TMR-labeled acceptor LacNAc; conditions: acceptor LacNAc labeled with TMR; expected product H type 2
# From the text: (§1) The reaction products synthesized from different acceptors by the Hp α1,2 FucT were further characterized by capillary electrophoresis with laser-induced fluorescence detection. The reaction mixture contained the overproduced UA802 α1,2 FucT protein (from pGEMI6 clone), GDP-fucose, and different acceptors labeled with tetramethylrhodamine (TMR). The results (FIG. 7) confirmed the data from the enzyme assay using radioactive labeled GDP-fucose (Table 3B) by identifying the products of the reactions.
# [2] = Reaction products by capillary electrophoresis, TMR-labeled acceptor Type 1; conditions: acceptor Type 1 labeled with TMR; authentic product H type 1
# From the text: as §1
# [3] = Reaction products by capillary electrophoresis, TMR-labeled acceptor Le^X; conditions: acceptor Le^X labeled with TMR; peak co-migrated with standard Le^Y
# From the text: as §1
# [4] = Fucosyltransferase assay (GDP-[3H]fucose), acceptor Le^X; conditions: for total activity: from 25 ml cell culture
# Protocol: (§2) In a typical experiment, E. coli CLM4 (pGP1-2) cells haboring a plasmid carrying an H. pylori fucT gene (pBKHp763fucT39, pGEMH2, pGEMI6 or pGEMB3) were grown in 25 ml liquid LB medium with appropriate antibiotics (kanamycin and ampicillin) at 30° C. to an optical density of 0.5-0.7 at 600 nm. After being collected, the cells were washed once with M9 medium, resuspended in 5 ml of supplemented M9 medium, and farther incubated at 30° C. for 1 h. To induce the expression of the fucT gene, the cell culture was shifted to 42° C. by adding 5 ml prewarmed (55° C.) supplemented M9 medium. After incubation at 42° C. for 15 min, rifampicin was added to a final concentration of 200 μg/ml, and cell growth was continued at 42° C. for 20 min.
# (§3) For analysis of the protein on SDS-PAGE, a small aliquot (0.5 ml) of the cell culture was taken, and 2.5 μl of [^35S]-methionine (4.35×10^13 Bq/mmol, 3.7×10^8 Bq/ml, NEN™, Boston, Mass.) was added. After further growth at 30° C. for 30 min, the cells were harvested, resuspended in 100 μl sample buffer (50 mM Tris-HCl, pH6.8, 1% (w/v) SDS, 20 mM EDTA, 1% (v/v) mercaptoethanol, 10% (v/v) glycerol), and boiled for 3 min before loading on to the gel. For the preparation of the sample for the enzyme assay, the remaining part (major aliquot, 9.5 ml) of the cell culture after induction was further incubated at 30° C. for 30 min, then harvested. The cells were washed with 1.5 ml of 20 mM HEPES (pH 7.0), and resuspended in 1.5 ml of this buffer supplemented with 0.5 mM PMSF.
# (§4) Preparation of cell lysates or cell extracts for the fucosyltransferase assay. The E. coli cells containing overproduced Hp FucT proteins, which were in HEPES buffer with PMSF as described above, were disrupted with a French press at 7000 lb/in^2 at 4° C. The cell lysates were used directly for enzyme assays. For determining the location of the enzyme activities, the cytoplasmic and membrane fractions were separated as follows. The cell lysates were centrifuged at 13,000× g at 4° C. for 10 min. The cell debris were discarded and the supernatant was subjected to ultracentrifugation at 128,000× g (Beckman TL100/rotor 100.2) at 4° C. for 1 h. The supernatant was collected as the cytoplasmic fraction. The membrane pellets were resuspended in a small volume of the same buffer and treated with 1 M NaCl.
# (§5) Assays of Hp α1,2 and a 1,3 FucT activities were carried out according to the method described by Chan et al. (1995, Glycobiology 5:683-688) with some modifications. Reactions were conducted at 37° C. for 20 min in a volume of 20 μl containing 1.8 mM acceptor, 50 μM GDP-fucose, 60000 dpm GDP-[^3H]fucose, 20 mM HEPES buffer (pH7.0), 20 mM MnCl2, 0.1 M NaCl, 35 mM MgCl2, 1 mM ATP, 5 mg/ml BSA, and 6.2 μl of the enzyme preparation. The acceptors used in this study were: LacNAc [βGal 1-4 βGlcNAc], Le^X [βGal 1-4 (α Fuc1-3) βGlcNAc], Type 1 [[…] 1-3 βGlcNAc], and Le^a [βGal 1-3 (α Fuc1-4) βGlcNAc]. GDP-[^3H]fucose (1.9×10^11 Bq/ml/mmol) was obtained from American Radiolabeled Chemicals Inc. (St. Louis, Mo.). Sep-Pak Plus C-18 reverse-phase cartridges were purchased from Waters (Mississauga, ON). For calculation of the specific activity of the enzyme (micro-units per milligram protein), protein concentrations of the cell extracts were determined with a BCA protein assay kit (Pierce, Rockford, Ill.) using BSA as a standard according to the supplier's instructions.
# [5] = Reaction products by capillary electrophoresis, TMR-labeled acceptor Le^a; conditions: acceptor Le^a labeled with TMR; authentic product Le^b
# From the text: as §1
# [6] = Fucosyltransferase assay (GDP-[3H]fucose), acceptor Le^a
# Protocol: as §2, §3
# (§6) Preparation of cell lysates or cell extracts for the fucosyltransferase assay. […]
# (§7) Assays of Hp α1,2 and a 1,3 FucT activities were carried out according to the method described by Chan et al. (1995, Glycobiology 5:683-688) with some modifications. […] For calculation of the specific activity of the enzyme (micro-units per milligram protein), protein concentrations of the cell extracts were determined with a BCA protein assay kit (Pierce, Rockford, Ill.) using BSA as a standard according to the supplier's instructions.
# [7] = Fucosyltransferase assay (GDP-[3H]fucose), acceptor LacNAc
# Protocol: as §2, §3, §6, §7
# [8] = Fucosyltransferase assay (GDP-[3H]fucose), acceptor Type 1; conditions: for total activity: from 25 ml cell culture
# Protocol: as §2, §3, §4, §5
# [9] = acceptor Le^x, membrane fraction
# [10] = acceptor Type 1, cytoplasm fraction
molecule,measurement,setting,value
B1,reaction product in electropherogram,[1],no reaction product representing H type 2 was observed
same,reaction product in electropherogram,[2],new peaks co-migrating with authentic products
same,reaction product in electropherogram,[3],a small new peak was produced
same,specific activity,"[4]; acceptor Le^X, proposed product Le^Y, E. coli whole cell extract",150 ± 33 μU/mg
same,"α1,2 FucT activity (in words)","[4]; acceptor Le^X, enzyme from pGEMI6",considerable activity was observed
same,activity in the membrane fraction (in words),"[4]; acceptor Le^X, membrane fraction",no detectable activity
same,relative activity,"[4]; acceptor Le^X, relative to UA802 α1,2 FucT on its best substrate Type 1",49%
same,relative activity (percentage of the total activity),"[4]; acceptor Le^x, cytoplasm fraction",100%
same,specific activity,"[4]; acceptor Le^x, cytoplasm fraction of E. coli CLM4 (pGP1-2, pGEMI6), listed as H. pylori α1,2 FucT",41 μU/mg protein and 38 μU/mg protein
same,total activity,"[4]; acceptor Le^x, cytoplasm fraction, listed as H. pylori α1,2 FucT",54 μU and 49 μU
same,relative activity (percentage of the total activity),[4]; [9],0%
same,specific activity,"[4]; acceptor Le^x, membrane fraction of E. coli CLM4 (pGP1-2, pGEMI6)",0 μU/mg protein
same,total activity,[4]; [9],0 μU
same,reaction product in electropherogram,[5],new peaks co-migrating with authentic products
same,activity compared to Le^X,[6]; acceptor Le^a versus Le^X,2 fold
same,specific activity,"[6]; acceptor Le^a, proposed product Le^b, E. coli whole cell extract",301 ± 13 μU/mg
same,relative activity,"[6]; acceptor Le^a, relative to UA802 α1,2 FucT on its best substrate Type 1",97%
same,specific activity,[7]; E. coli whole cell extract containing the overexpressed FucT protein,14 ± 8 μU/mg
same,"α1,2 FucT activity (in words)",[7]; enzyme from pGEMI6,almost no activity was detected
same,relative activity,"[7]; relative to UA802 α1,2 FucT on its best substrate Type 1",4.5%
same,specific activity,"[8]; acceptor Type 1, proposed product H type 1, E. coli whole cell extract",309 ± 28 μU/mg
same,relative activity (percentage of the total activity),[8]; [10],100%
same,specific activity,"[8]; acceptor Type 1, cytoplasm fraction of E. coli CLM4 (pGP1-2, pGEMI6)",78 μU/mg protein
same,total activity,[8]; [10],108 μU
same,specific activity,"[8]; acceptor Type 1, membrane fraction of E. coli CLM4 (pGP1-2, pGEMI6)",8 μU/mg protein
same,total activity,"[8]; acceptor Type 1, membrane fraction",3 μU
same,relative activity (percentage of the total activity),"[8]; acceptor Type 1, membrane fraction, listed as H. pylori α1,2 FucT",3%
same,relative activity (percentage of the total activity),"[8]; acceptor Type 1, membrane fraction, listed as Hp α1,2 FucT",less than 3%
same,relative activity,"[8]; acceptor Type 1, relative to UA802 α1,2 FucT on its best substrate Type 1",100%
same,activity compared to Le^X,[8]; acceptor Type 1 versus Le^X,2 fold
